Results reported in US11161884B2 (SAVID THERAPEUTICS INC., priority 2014, dated 2021).
Each block holds one molecule with its values, some of them ahead of it.

Key:
[1] = molecular target: T1, Pro-EPR-mFc (extracellular domain of epiregulin fused with murine Fc region) (Homo sapiens, UniProt O14944); assay: SPR antigen binding potential (Biacore T200); settings: for Kd: SPR kinetics assay, Pro-EPR-mFc captured on CM5, read-out: affinity to the antigen after FITC labeling
T1 construct: made in house; host or cells: Expi293F cells, pcDNA3.4 vector
T1 sequence (O14944 with tags, fused parts or gaps): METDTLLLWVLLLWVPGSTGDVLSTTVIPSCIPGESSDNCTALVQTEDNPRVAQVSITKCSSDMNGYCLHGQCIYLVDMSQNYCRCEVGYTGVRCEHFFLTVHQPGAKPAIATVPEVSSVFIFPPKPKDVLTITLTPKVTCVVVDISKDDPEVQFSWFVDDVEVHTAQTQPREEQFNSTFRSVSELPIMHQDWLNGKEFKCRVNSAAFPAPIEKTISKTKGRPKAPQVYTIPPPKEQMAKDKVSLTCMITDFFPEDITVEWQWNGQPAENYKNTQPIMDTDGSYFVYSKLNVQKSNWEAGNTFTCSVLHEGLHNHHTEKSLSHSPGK
Text: Next, in order to confirm whether the labeling reduced the binding potential or not, the antigen binding potential of anti-epiregulin scFv-V2122-FITC was confirmed by SPR (Biacore T200). More specifically, protein (Pro-EPR-mFc) obtained by fusing the extracellular domain of epiregulin which functions as a ligand with murine Fe region is captured on the sensor chip CM5 having anti-Murine IgG antibody immobilized thereon, and then eluted for kinetics assay with an analyte composed of a two-fold dilution series prepared by diluting a 20 nM anti-epiregulin scFv-V2122-FITC solution into nine steps (FIG. 14). […] Also epiregulin IgG and anti-epiregulin scFv protein were investigated in the binding test in the same way as described above, using a two-fold dilution series prepared by diluting a 300 nM solution into nine steps (FIG. 14). Data was analyzed using Biacore evaluation software.

DLD1 cells = assay: Cell staining and analysis of internalization; assay type: cell-based, human; settings: for staining of the surface of the cell membrane: DLD1, 25 nM, 50 nM and 100 nM
Protocol: Human colorectal cancer-derived DLD1 cells, used for cell staining, were cultured in a complete medium RPNI1640 (containing 10% FBS), and seeded in uClear 96-well plate (Greiner) in a density of 1×10^4 cells/well, two days before the assay. In the cell staining, first the medium was replaced with a complete medium added with Hoechst 33342 so as to adjust the concentration to 1 μM, and 15 minutes after, each of anti-epiregulin scFv-V2122-FITC, epiregulin IgG-FITC and anti-epiregulin scFv-FITC was added to the individual wells so as to adjust the concentration to 25 nM, 50 nM and 100 nM.
Binding of antibody to the cell surface, and internalization were analyzed using IN Cell Analyzer 6000 (GE Healthcare BioScience Corp.), and recorded by time lapse imaging at 5 minute intervals.

[2] = test system: DLD1 cells having epiregulin expressed; assay: FACS analysis of cell surface binding potential; assay type: cell-based, human; settings: 0, 0.5, 5, 50 nM, on ice 30 minutes
Protocol: Cell surface binding potential was determined by FACS, using labeled antibodies that are anti-epiregulin scFv-V2122-FITC, epiregulin IgG-FITC and anti-epiregulin scFv-FITC. More specifically, dilute solutions of the labeled antibodies having concentrations of 0 nM, 0.5 nM, 5 nM and 50 nM were allowed to react on ice for 30 minutes with DLD1 cells (1×10^6 cells/mL, […]) having epiregulin expressed therein, and then fluorescence was measured using flow cytometer guava easyCyte 5. The measurement followed the usage and dosage instructions given in the manual of the instrument.

DLD1 tumor = assay: In vivo imaging, DLD1 heterotransplantation model; design: species or system nude mice; settings: 25, 50, 100 μg intravenously, pre-labeled with Psyche F-IRDye 800; imaging 2, 24, 48 hours
Protocol: The thus purified anti-epiregulin scFv-V2122 was mixed with Psyche F-IRDye 800 (Compound 44 in Example) dissolved in DMSO (final concentration was ten-fold molar concentration), and the mixture was incubated on ice for 10 minutes. The buffer was then replaced with Japanese Pharmacopoeia physiological saline (Otsuka Pharmaceutical Co., Ltd.) using Zeba Spin Desalting Column (Thermo Fisher Scientific Inc.) and was stored under cooling. Epiregulin IgG was labeled using ICG Labeling Kit-NH2 (Dojindo Laboratories).
Suspension liquid of human colorectal cancer-derived DLD1 cell and Matrigel Matrix (Corning) were mixed in a ratio of 1:1 (5×10^6 cells/0.1 mL), and 0.1 mL of the mixed liquid was administered subcutaneously in the left side of 5 to 6-week-old female nude mice (Sankyo Labo Service Corporation, Inc.). The mice were bred for several weeks to produce tumor. One week before imaging, the feed was switched to a low fluorescence feed (iVid #1, Oriental Yeast Co., Ltd.) and the breeding was continued. […]
Anti-epiregulin scFv-V2122 antibody (25 μg, 50 μg, 100 μg) preliminarily labeled with fluorescence by allowing it to react with Psyche F-IRDye 800 (Compound 44 in Example), or fluorescent-labeled epiregulin IgG (50 μg) was intravenously administered to nude mice having established DLD1 tumor. […]

[3] = Immunogenicity testing, antibody in serum analyzed by SPR; assay type: in vivo, crab-eating monkey (Macaca fascicularis); settings: 1 mg purified protein administered three times (Day 0, 21, 42); four monkeys
Protocol: Immunogenicity testing was conducted using four crab-eating monkeys. One milligram of the purified protein was administered three times. Before administration, blood was collected for preparing a negative control serum, followed by three times of administration of 1 mg each of purified protein. More specifically, letting the first day of administration of Day 0, the second administration fell on Day 21, and the third administration fell on Day 42. For V2122, blood was collected on Days 7, 14, 28 and 35 to prepare serum samples, and for the other, blood was collected on Days 7, 14, 28, 35, 49 and 56 to prepare serum samples.
Antibody against V2122 in the serum samples was analyzed by surface plasmon resonance (SPR). More specifically, Biacore T200 (GE Healthcare BioScience Corp.) was used as a measuring instrument, which was operated in the mode using immunogenicity package. The sensor chip was CM5. As instructed by the manual, V2122 protein (10 μg/mL) was immobilized on the CM5 sensor chip using an amine coupling kit. Serum was diluted ten-fold with a running buffer (HBS-EP, GE Healthcare BioScience Corp.) for the interaction analysis. More specifically, the serum diluted ten-fold was loaded into the running buffer at a flow rate of 10 μL/min for 5 minutes. The obtained sensorgram was analyzed using an analytical software named Biacore T200 Evaluation Software.

[4] = SPR interaction of streptavidin mutants with Compound C (Comparative Example 2); assay type: binding; settings: Compound C 1.8-1800 nM; protein immobilized via His-Tag
Text: (§1) Using the purified two wild-type core streptavidin mutants (cSA-Y43A, cSA-S45A) described above, and purified V2122 protein, interaction with Compound C was investigated by surface plasmon resonance (SPR). More specifically, using Biacore T200 (GE Healthcare BioScience Corp.) as a measuring instrument, and Sensor Chip NTA (GE Healthcare BioScience Corp.) as a sensor chip, the protein was immobilized on the sensor chip by way of His-Tag having been fused to the core protein. The running buffer was prepared using HBS-P(+), as described in the manual. A dilution series of Compound was prepared by using the running buffer in seven steps of 1.8 nM, 9 nM, 18 nM, 90 nM, 180 nM, 900 nM and 1800 nM, to obtain data.

[5] = SPR interaction of streptavidin mutants with biotin (Comparative Example 1); assay type: binding; settings: biotin 1.8-1800 nM; protein immobilized via His-Tag
Protocol: as §1, with “More” for “Using the purified two wild-type core streptavidin mutants (cSA-Y43A, cSA-S45A) described above, and purified V2122 protein, interaction with Compound C was investigated by surface plasmon resonance (SPR). More”

Kd [1]: 120 nM
B1: anti-epiregulin scFv-FITC: FITC-labeled anti-epiregulin scFv protein (SEQ ID NO: 22) (protein)
scFv: MKYLLPTAAAGLLLLAAQPAMAQVQLQQSGAEVKKPGASVKVSCKASGFNIKDTYMHWVRQAPEQGLEWMGRIDPLNDKTKYDPKFQGRVTITADTSTNTAYLELSSLTSEDTAVYYCARGGGDPVFVYWGQGTLVTVSASSGGGGSGGGGSGGGGSGGGGSGGDIQMTQSPSSLSASVGDRVTITCKASQDINKYLAWYQHKPGQAPRLLIHYTSTLHPGIPSRFSGSGSGTDFTFSISSLQPEDIATYYCLQYDNLRTFGGGTKVEIKRTSHHHHHH
modifications: FITC label
staining of the surface of the cell membrane (DLD1 cells): staining of the surface of the cell membrane was observed
cell surface binding potential by FACS [2]: level of binding potential lower than those shown by the former two

B2: anti-epiregulin scFv-V2122: fusion protein formed by anti-epiregulin scFv and V2122; SEQ ID NO: 30 (protein)
chain: MKYLLPTAAAGLLLLAAQPAMAQVQLQQSGAEVKKPGASVKVSCKASGFNIKDTYMHWVRQAPEQGLEWMGRIDPLNDKTKYDPKFQGRVTITADTSTNTAYLELSSLTSEDTAVYYCARGGGDPVFVYWGQGTLVTVSASSGGGGSGGGGSGGGGSGGGGSGGDIQMTQSPSSLSASVGDRVTITCKASQDINKYLAWYQHKPGQAPRLLIHYTSTLHPGIPSRFSGSGSGTDFTFSISSLQPEDIATYYCLQYDNLRTFGGGTKVEIKRTSGGGGSGGGGAEAGITGTWSDQLGDTFIVTAGADGALTGTYENAVGGAESRYVLTGRYDSAPATDGSGTALGWTVAWKNNSKNAHSATTWSGQYVGGADAKINTQWLLTSGTTNANAWKSTLVGHDTFTKVKPSAASHHHHHH
accumulation in tumor (DLD1 tumor): accumulate in the tumor of the model mice earlier (2 hours after administration) than the labeled IgG

affinity relative to epiregulin IgG-FITC and anti-epiregulin scFv-FITC [1]: 100 to 1000 times
Kd [1]: 0.23 nM
B3: anti-epiregulin scFv-V2122-FITC: FITC-labeled product of purified anti-epiregulin scFv-V2122 (protein)
scFv: QVQLQQSGAEVKKPGASVKVSCKASGFNIKDTYMHWVRQAPEQGLEWMGRIDPLNDKTKYDPKFQGRVTITADTSTNTAYLELSSLTSEDTAVYYCARGGGDPVFVYWGQGTLVTVSASSGGGGSGGGGSGGGGSGGGGSGGDIQMTQSPSSLSASVGDRVTITCKASQDINKYLAWYQHKPGQAPRLLIHYTSTLHPGIPSRFSGSGSGTDFTFSISSLQPEDIATYYCLQYDNLRTFGGGTKVEIKRTSGGGGSGGGGAEAGITGTWSDQLGDTFIVTAGADGALTGTYENAVGGAESRYVLTGRYDSAPATDGSGTALGWTVAWKNNSKNAHSATTWSGQYVGGADAKINTQWLLTSGTTNANAWKSTLVGHDTFTKVKPSAASHHHHHH
time at which internalization began to be observed after addition of antibody (DLD1 cells; DLD1): approximately 10 minutes
staining of the surface of the cell membrane (DLD1 cells): staining of the surface of the cell membrane was observed
migration of fluorescence into the cytoplasm (DLD1 cells; DLD1, sixty-five minutes after addition): almost entire part of fluorescence was found to migrate into the cytoplasm
internalization (DLD1 cells; DLD1, time lapse imaging at 5 minute intervals): distinct internalization was observed
cell surface binding potential by FACS [2]: equivalent levels of binding potential

B4: V2122: glycine mutant (N49G) of V212 streptavidin mutant; amino acid sequence SEQ ID NO: 4 (protein)
chain: AEAGITGTWSDQLGDTFIVTAGADGALTGTYENAVGGAESRYVLTGRYDSAPATDGSGTALGWTVAWKNNSKNAHSATTWSGQYVGGADAKINTQWLLTSGTTNANAWKSTLVGHDTFTKVKPSAAS
immunogenicity [3]: low as compared with the immunogenicity of the wild-type streptavidin and LISA314
interaction with Compound C (sensorgram) [4]: specific binding showing only an extremely slow dissociation
interaction with biotin (sensorgram) [5]: absence of specific binding
